From paper PMC3223566

B1: Spt4/5, transcription elongation factor, wild type (complex)
chain 1: MRACLKCKYLTNDEICPICHSPTSENWIGLLIVINPEKSEIAKKAGIDIKGKYALSVKE
chain 2: MIFAVRTMVGQEKNIAGLMASRAEKEQLDVYSILASESLKGYVLVEAETKGDVEELIKGMPRVRGIVPGTIAIEEIEPLLTPKKIIENIEKGDVVEIIAGPFKGERAKVIRVDKHKEEVTLELENAAVPIPITLPVEGVKIVSKHKD
B2: TFE (archaeal transcription initiation factor E), unlabeled wild type (natural protein)
chain: MLNDPLVQEVLFNIFEGDEKGFEVIDVLLEKGETTEEEIAKELGVKLNVVRKLLYKLYDARLVDYKRWKDEDTNWYSYTWLPTLEKLPYVVKKKINELIKDLEKKLEFEKNNMFFFCPNCNVRFTFEEAMDYGFSCPGCGNMLQEFDNSELIKDLEEQIKFLKEELKNNPFLK

Experiments:
[1] = biological target: M. jannaschii RNA polymerase, wild type, reconstituted from 12 recombinant subunits (M. jannaschii) (UniProt Q58443)
[2] = biological target: M. jannaschii RNA polymerase, wild type, reconstituted from 12 recombinant subunits (M. jannaschii) (UniProt Q58443); remark: listed apart in the source
[3] = biological target: M. jannaschii RNA polymerase, wild type, reconstituted from 12 recombinant subunits (M. jannaschii) (UniProt Q58443); experiment: native gel or EMSA; competition: Spt4/5 or Spt4/5^A4R (0.33, 1, 7.5, 25 μM) added to a preformed complex of free RNAP and TFE^133*DL549 (0.74 μM)
[4] = biological target: M. jannaschii RNA polymerase, wild type, reconstituted from 12 recombinant subunits (M. jannaschii) (UniProt Q58443); experiment: native gel or EMSA; competition in the PIC: Spt4/5 (0, 16, 32, 137 μM) added to preformed PICs (DNA, TBP, TFB, RNAP) with fluorescently labeled TFE (0.75 μM)
[5] = biological target: M. jannaschii RNA polymerase, wild type, reconstituted from 12 recombinant subunits (M. jannaschii) (UniProt Q58443); experiment: native gel or EMSA; competition in the TEC: RNAP (0.21 μM), NTS (20 μM), TS (15 μM), RNA (68 μM), TFE^G133*DL549 (0.74 μM), Spt4/5 or Spt4/5^A4R (1, 2.5, 15 μM)
[6] = biological target: M. jannaschii RNA polymerase, wild type, reconstituted from 12 recombinant subunits (M. jannaschii) (UniProt Q58443); remark: listed apart in the source
[7] = biological target: RNAPΔRpo4/7, ten-subunit RNAP subassembly lacking Rpo4/7 (M. jannaschii) (UniProt Q58443)

Binder	inhibition of promoter-directed runoff transcription by minimal complexes (DNA, TBP, TFB, RNAP; no TFE) [1] [µM]	inhibition of transcript synthesis in promoter-directed transcription, Spt4/5 at 55.2 μM [2] [fold]	IC50 [3] [nM]	IC50 [4] [nM]	IC50 [5] [nM]	stimulation of promoter-directed runoff transcription by TFE (0, 0.32, 8 μM) [6] [fold]	stimulation of promoter-directed transcription by TFE (8 μM) [7] [fold]
B1	9.6	> 10	550	29000	790	–	–
B2	–	–	–	–	–	5	< 1.2
